Key:
Test in all cases: cell-based or functional assay
[1] = molecular target: HIV-1 Env of Q842.d12 (HIV-1)
[2] = molecular target: HIV-1 Env of Q461.e2 (HIV-1)
[3] = molecular target: HIV-1 Env of DU172.17 (HIV-1)
[4] = molecular target: HIV-1 Env of Q769.d22 (HIV-1)
[5] = molecular target: HIV-1 Env of QH0692.42 (HIV-1)
[6] = molecular target: HIV-1 Env of BG505.w6m (HIV-1)
[7] = molecular target: HIV-1 Env of RW020.2 (HIV-1)
[8] = molecular target: HIV-1 Env of CAAN.A2 (HIV-1)
[9] = molecular target: HIV-1 Env of DU422.01 (HIV-1)
[10] = molecular target: HIV-1 Env of UG037.8 (HIV-1)
[11] = molecular target: HIV-1 Env of Q23.17 (HIV-1)
[12] = molecular target: HIV-1 Env of AC10.29 (HIV-1)
[13] = molecular target: HIV-1 Env of CNE3 (HIV-1)
[14] = molecular target: HIV-1 Env of C1080.c3 (HIV-1)
[15] = molecular target: HIV-1 Env of ZM135.10a (HIV-1)
[16] = molecular target: HIV-1 Env of Q168.a2 (HIV-1)
[17] = molecular target: HIV-1 Env of 6535.3 (HIV-1)
[18] = molecular target: Env of SIVmac251.30 (SIV (SIVmac251))
[19] = molecular target: HIV-1 Env of 0260.v5.c36 (HIV-1)
[20] = molecular target: HIV-1 Env of MB539.2B7 (HIV-1)
[21] = molecular target: HIV-1 Env of MB201 (HIV-1)
[22] = molecular target: HIV-1 Env of ZM249.1 (HIV-1)
[23] = molecular target: HIV-1 Env of CAP256.PI (HIV-1)
[24] = molecular target: HIV-1 Env of TRO.11 (HIV-1)
[25] = molecular target: HIV-1 Env of WITO.33 (HIV-1)
[26] = molecular target: HIV-1 Env of CAP210.E8 (HIV-1)
[27] = molecular target: HIV-1 Env of TH976.17 (HIV-1)
[28] = molecular target: HIV-1 Env of KER2008.12 (HIV-1)
[29] = molecular target: HIV-1 Env of ZM109.4 (HIV-1)
[30] = molecular target: HIV-1 Env of ZM214.15 (HIV-1)
[31] = molecular target: HIV-1 Env of CM244.ec1 (HIV-1)
[32] = molecular target: HIV-1 Env of PVO.04 (HIV-1)
[33] = molecular target: HIV-1 Env of REJO.67 (HIV-1)
[34] = molecular target: HIV-1 Env of TRJO.58 (HIV-1)
[35] = molecular target: HIV-1 Env of 96ZM651.02 (HIV-1)
[36] = molecular target: HIV-1 Env of ZM197.7 (HIV-1)
[37] = molecular target: HIV-1 Env of DU156.12 (HIV-1)
[38] = molecular target: HIV-1 Env of 6405.v4.c34 (HIV-1)
[39] = molecular target: HIV-1 Env of THRO.18 (HIV-1)
[40] = molecular target: HIV-1 Env of CAP244.D3 (HIV-1)
[41] = molecular target: HIV-1 Env of CAP256.SU (HIV-1)
[42] = molecular target: HIV-1 Env of SC422.8 (HIV-1)
[43] = molecular target: HIV-1 Env of RHPA.7 (HIV-1)
[44] = molecular target: HIV-1 Env of Q259.d2.17 (HIV-1)

B1: CAP256-VRC26.25 (antibody, V domains shown)
VH: QVQLVESGGGVVQPGTSLRLSCAASQFRFDGYGMHWVRQAPGKGLEWVASISHDGIKKYHAEKVWGRFTISRDNSKNTLYLQMNSLRPEDTALYYCAKDLREDECEEWWSDYYDFGKQLPCAKSRGGLVGIADNWGQGTMVTVSS
VL: QSVLTQPPSVSAAPGQKVTISCSGNTSNIGNNFVSWYQQRPGRAPQLLIYETDKRPSGIPDRFSASKSGTSGTLAITGLQTGDEADYYCATWAASLSSARVFGTGTQVIVLG
[1]
  IC50 (neutralization, TZM-bl): 0.005 µg/mL
[2]
  IC50 (neutralization, TZM-bl): 0.007 µg/mL
[3]
  IC50 (neutralization, TZM-bl): > 50 µg/mL
[4]
  IC50 (neutralization, TZM-bl): > 50 µg/mL
[5]
  IC50 (neutralization, TZM-bl): > 50 µg/mL
[6]
  IC50 (neutralization, TZM-bl): 0.001 µg/mL
[7]
  IC50 (neutralization, TZM-bl): > 50 µg/mL
[8]
  IC50 (neutralization, TZM-bl): > 50 µg/mL
[9]
  IC50 (neutralization, TZM-bl): 0.003 µg/mL
[10]
  IC50 (neutralization, TZM-bl): > 50 µg/mL
[11]
  IC50 (neutralization, TZM-bl): 0.001 µg/mL
[12]
  IC50 (neutralization, TZM-bl): 0.077 µg/mL
[13]
  IC50 (neutralization, TZM-bl): > 50 µg/mL
[14]
  IC50 (neutralization, TZM-bl): 0.004 µg/mL
[15]
  IC50 (neutralization, TZM-bl): > 50 µg/mL
[16]
  IC50 (neutralization, TZM-bl): 0.001 µg/mL
[17]
  IC50 (neutralization, TZM-bl): > 50 µg/mL
[18]
  IC50 (neutralization, TZM-bl): > 50 µg/mL
[19]
  IC50 (neutralization, TZM-bl): 6.54 µg/mL
[20]
  IC50 (neutralization, TZM-bl): 0.186 µg/mL
[21]
  IC50 (neutralization, TZM-bl): > 50 µg/mL
[22]
  IC50 (neutralization, TZM-bl): 0.001 µg/mL
[23]
  IC50 (neutralization, TZM-bl): 1.33 µg/mL
[24]
  IC50 (neutralization, TZM-bl): > 50 µg/mL
[25]
  IC50 (neutralization, TZM-bl): > 50 µg/mL
[26]
  IC50 (neutralization, TZM-bl): 0.001 µg/mL
[27]
  IC50 (neutralization, TZM-bl): 0.106 µg/mL
[28]
  IC50 (neutralization, TZM-bl): 0.005 µg/mL
[29]
  IC50 (neutralization, TZM-bl): 0.001 µg/mL
[30]
  IC50 (neutralization, TZM-bl): 0.006 µg/mL
[31]
  IC50 (neutralization, TZM-bl): 0.092 µg/mL
[32]
  IC50 (neutralization, TZM-bl): 0.072 µg/mL
[33]
  IC50 (neutralization, TZM-bl): > 50 µg/mL
[34]
  IC50 (neutralization, TZM-bl): > 50 µg/mL
[35]
  IC50 (neutralization, TZM-bl): 0.173 µg/mL
[36]
  IC50 (neutralization, TZM-bl): 0.002 µg/mL
[37]
  IC50 (neutralization, TZM-bl): 0.002 µg/mL
[38]
  IC50 (neutralization, TZM-bl): > 50 µg/mL
[39]
  IC50 (neutralization, TZM-bl): 19.8 µg/mL
[40]
  IC50 (neutralization, TZM-bl): > 50 µg/mL
[41]
  IC50 (neutralization, TZM-bl): 0.001 µg/mL
[42]
  IC50 (neutralization, TZM-bl): 47.2 µg/mL
[43]
  IC50 (neutralization, TZM-bl): > 50 µg/mL
[44]
  IC50 (neutralization, TZM-bl): 0.002 µg/mL

Reference: patent publication US20200199204A1 (UNITED STATES OF AMERICA AS REPRESENTED BY THE SECRETARY …, published 2020)
